{
  "source": "patent US20230331840A1",
  "key": {"CD22-his (human)": {"biological_target": "CD22-his (human) (UniProt P20273)", "assay": "ELISA"}, "h CD22-His (human)": {"biological_target": "h CD22-His (human) (UniProt P20273)", "assay": "BLI (Fortebio)"}},
  "data": [
    {"substance": "M971", "values": [
      {"measurement": "EC50", "setting": "CD22-his (human)", "result": 0.195, "unit": "nM"},
      {"measurement": "Kd", "setting": "h CD22-His (human)", "result": 0.86, "unit": "nM"}
    ]}
  ]
}
